Test results: US20090305973A1, “NOVEL PEPTIDE AND USE THEREOF” (priority 2006, published 2009)
Where no end group is shown, it is not given here.

Columns and labels:
[1] = system: Human foreskin fibroblast cells; assay: Fibroblast proliferation, tritium-labeled thymidine incorporation; type: cell-based; settings: for activity of inducing the proliferation of fibroblast cells: 100 nM, 12 hours, incorporated thymidine
Protocol: (§1) Human foreskin fibroblast cells (MC1232 obtained from MIT), U2OS cells (ATCC HTB-96) and bovine aorta endothelial cells (hereinafter, referred to as “BAECs”) were treated with the AIMP1 fragments cleaved by elastase 2 in Test Example <1-1>, and the effects of the AIMP1 fragments on the proliferation of the cells were examined.
(§2) Bovine aorta endothelial cells (BAECs) were isolated from bovine descending thoracic aorta and cultured in Dulbecco's modified Eagle's medium (DMEM) containing 20% FBS at 37° C. in a 5% CO2 atmosphere. The foreskin fibroblast cells and the U2OS cells were cultured in DMEM with 10% FBS and 1% antibiotic. Each of the cultured cell lines (5×10^3 cells) was cultivated in a 24-well dish for 12 hours and then subjected to serum-starved culture for 3 hours. Next, 100 nM of a full-length AIMP1 or fragments of AIMP1 cleaved with an enzyme were added to each well and cultivated for 12 hours. The control group was without the testing agents. After completion of the cultivation, tritium-labeled thymidine (1 μCi/well) was added to each well, and the cells were additionally cultured at 37° C. for 4 hours. The cultured cells were washed with PBS three times and fixed with 5% TCA for 10 minutes, followed by washing again with PBS three times. The cells were lysed with 0.5N NaOH, and the incorporated thymidine was quantified with a liquid scintillation counter.
In order to examine the fibroblast proliferation activities of the recombinant proteins constructed in Example 1, foreskin fibroblast cells were treated with each of the recombinant proteins in the same manner as in Test Example <1-2>, and the proliferation of the fibroblast cells was examined.
Whether the AIMP1-(6-46) fragment synthesized in Example <3-1> stimulates the proliferation of fibroblast cells was examined in the same manner as in Test Example <1-2>. Herein, the AIMP1-(6-46) fragment was used at various concentrations ([…]), and 100 nM of the full-length AIMP1 (AIMP1-(1-132)) was used as a control.

C57BL/6 mice = assay: In vivo wound healing (wound closure) of excised back skin wound; settings: 200 nM in PBS containing 20% glycerol, applied to wound twice a day until day 8, 0.5 cm-diameter back wound
Protocol: AIMP1-(14-34) (SEQ ID NO: 6) and AIMP1-(26-46) (SEQ ID NO: 7) fragments smaller than the AIMP1-(6-46) fragment synthesized in Example 3 were synthesized by a chemical synthetic method in Peptron (http://www.peptron.co.kr), and the wound healing-promoting activities thereof were analyzed in vivo. The analysis of the wound healing activities was performed using 8-week-old C57BL/6 mice. The mice were anesthetized with an intraperitoneal injection of 2.5% avertin (100 μl/10 g), and then the back of each animal was shaved, followed by disinfecting the back skin with 70% alcohol. The back skin was marked with a 0.5 cm-diameter circle, and a skin and panniculus carnosus muscle was removed with scissors to induce a wound. The wounds were left uncovered without a dressing. One wound was generated per mouse and treated with 200 nM of each of AIMP1-(14-34), AIMP1-(26-46) and AIMP1-(6-46) fragments in PBS (phosphate-buffered saline) containing 20% glycerol, twice a day at 12-hour intervals until day 8 after wounding. A control group was treated only with PBS containing 20% glycerol. Then, wound closure was monitored daily using the Image-pro Plus software and was calculated as the percentage of the initial wound area.

[2] = system: bovine aorta endothelial cells; assay: Endothelial cell proliferation, tritium-labeled thymidine incorporation; type: cell-based; settings: 100 nM, 12 hours, BAECs, incorporated thymidine
Protocol: as §1, §2

Molecule	activity of inducing the proliferation of fibroblast cells ([1]; foreskin fibroblast cells)	other results
AIMP1-(1-46): recombinant deletion mutant of AIMP1, expressed as GST-tag fusion protein (MANNDAVLKRLEQKGAEADQIIEYLKQQVSLLKEKAILQATLREEK; also: GST tag fusion, end not given here; listed as Homo sapiens)	high proliferation-inducing activity	
AIMP1-(1-53): recombinant deletion mutant of AIMP1, expressed as GST-tag fusion protein (MANNDAVLKRLEQKGAEADQIIEYLKQQVSLLKEKAILQATLREEKKLRVENA; also: GST tag fusion, end not given here; listed as Homo sapiens)	high proliferation-inducing activity	
AIMP1-(14-34): 21-amino-acid fragment of AIMP1-(6-46), chemically synthesized (KGAEADQIIEYLKQQVSLLKE; PEPTIDE (1)..(21) AIMP1-(14-34); listed as Homo sapiens)		activity of promoting wound healing (wound closure as percentage of the initial wound area) (C57BL/6 mice): had the activities of promoting wound healing
AIMP1-(26-46): 21-amino-acid fragment of AIMP1-(6-46), chemically synthesized (KQQVSLLKEKAILQATLREEK; PEPTIDE (1)..(21) AIMP1-(26-46); listed as Homo sapiens)		activity of promoting wound healing (wound closure as percentage of the initial wound area) (C57BL/6 mice): had the activities of promoting wound healing
NH2-AVLKRLEQKGAEADQIIEYLKQQVSLLKEKAILQATLREEK-COOH (H-AVLKRLEQKGAEADQIIEYLKQQVSLLKEKAILQATLREEK-OH; listed as Homo sapiens) [AIMP1-(6-46), peptide corresponding to amino acids 6-46 of AIMP1, expressed in E. coli]		proliferation of fibroblast cells, dose dependence ([1]; concentrations 0, 50, 100 and 200 mM (so in the source), foreskin fibroblast cells): induced the proliferation of fibroblast cells in a dose-dependent manner; fibroblast proliferation activity compared with full-length AIMP1 at the same concentration ([1]; control 100 nM full-length AIMP1): almost similar to the full-length AIMP1; activity of promoting wound healing (wound closure as percentage of the initial wound area) (C57BL/6 mice): had the activities of promoting wound healing
AIMP1-(114-192): recombinant deletion mutant of AIMP1, expressed as GST-tag fusion protein (protein, UniProt Q12904 114-192, looked up, fragment, GST tag, recombinant deletion mutant of AIMP1, expressed as GST-tag fusion protein) KGGTGDEKKAKEKIEKKGEKKEKKQQSIAGSADSKPIDVSRLDLRIGCIITARKHPDADSLYVEEVDVGEIAPRTVVSG	did not	
AIMP1-(47-192): recombinant deletion mutant of AIMP1, expressed as GST-tag fusion protein (protein, UniProt Q12904 47-192, looked up, fragment, GST tag, recombinant deletion mutant of AIMP1, expressed as GST-tag fusion protein) KLRVENAKLKKEIEELKQELIQAEIQNGVKQIPFPSGTPLHANSMVSENVIQSTAVTTVSSGTKEQIKGGTGDEKKAKEKIEKKGEKKEKKQQSIAGSADSKPIDVSRLDLRIGCIITARKHPDADSLYVEEVDVGEIAPRTVVSG	did not	
AIMP1-(54-192): recombinant deletion mutant of AIMP1, expressed as GST-tag fusion protein (protein, UniProt Q12904 54-192, looked up, fragment, GST tag, recombinant deletion mutant of AIMP1, expressed as GST-tag fusion protein) KLKKEIEELKQELIQAEIQNGVKQIPFPSGTPLHANSMVSENVIQSTAVTTVSSGTKEQIKGGTGDEKKAKEKIEKKGEKKEKKQQSIAGSADSKPIDVSRLDLRIGCIITARKHPDADSLYVEEVDVGEIAPRTVVSG	did not	
AIMP1-(193-312): recombinant deletion mutant of AIMP1, expressed as GST-tag fusion protein (protein, UniProt Q12904 193-312, looked up, fragment, GST tag, recombinant deletion mutant of AIMP1, expressed as GST-tag fusion protein) LVNHVPLEQMQNRMVILLCNLKPAKMRGVLSQAMVMCASSPEKIEILAPPNGSVPGDRITFDAFPGEPDKELNPKKKIWEQIQPDLHTNDECVATYKGVPFEVKGKGVCRAQTMSNSGIK	did not	
AIMP1-(30-192): recombinant deletion mutant of AIMP1, expressed as GST-tag fusion protein (protein, UniProt Q12904 30-192, looked up, fragment, GST tag, recombinant deletion mutant of AIMP1, expressed as GST-tag fusion protein) SLLKEKAILQATLREEKKLRVENAKLKKEIEELKQELIQAEIQNGVKQIPFPSGTPLHANSMVSENVIQSTAVTTVSSGTKEQIKGGTGDEKKAKEKIEKKGEKKEKKQQSIAGSADSKPIDVSRLDLRIGCIITARKHPDADSLYVEEVDVGEIAPRTVVSG	did not	
AIMP1-(101-192): recombinant deletion mutant of AIMP1, expressed as GST-tag fusion protein (protein, UniProt Q12904 101-192, looked up, fragment, GST tag, recombinant deletion mutant of AIMP1, expressed as GST-tag fusion protein) AVTTVSSGTKEQIKGGTGDEKKAKEKIEKKGEKKEKKQQSIAGSADSKPIDVSRLDLRIGCIITARKHPDADSLYVEEVDVGEIAPRTVVSG	did not	
AIMP1-(1-312): full-length ARS-interacting multi-functional protein 1 consisting of 312 amino acids (protein, listed as Homo sapiens) MANNDAVLKRLEQKGAEADQIIEYLKQQVSLLKEKAILQATLREEKKLRVENAKLKKEIEELKQELIQAEIQNGVKQIAFPSGTPLHANSMVSENVIQSTAVTTVSSGTKEQIKGGTGDEKKAKEKIEKKGEKKEKKQQSIAGSADSKPIDVSRLDLRIGCIITARKHPDADSLYVEEVDVGEIAPRTVVSGLVNHVPLEQMQNRMVILLCNLKPAKMRGVLSQAMVMCASSPEKIEILAPPNGSVPGDRITFDAFPGEPDKELNPKKKIWEQIQPDLHTNDECVATYKGVPFEVKGKGVCRAQTMSNSGIK	high proliferation-inducing activity	activity of inhibiting the proliferation of endothelial cells [2]: inhibiting the proliferation of endothelial cells
AIMP1-(1-192): recombinant deletion mutant of AIMP1, expressed as GST-tag fusion protein (protein, listed as Homo sapiens, GST tag fusion; PEPTIDE (1)..(192) AIMP1-(1-192), recombinant deletion mutant of AIMP1, expressed as GST-tag fusion protein) MANNDAVLKRLEQKGAEADQIIEYLKQQVSLLKEKAILQATLREEKKLRVENAKLKKEIEELKQELIQAEIQNGVKQIAFPSGTPLHANSMVSENVIQSTAVTTVSSGTKEQIKGGTGDEKKAKEKIEKKGEKKEKKQQSIAGSADSKPIDVSRLDLRIGCIITARKHPDADSLYVEEVDVGEIAPRTVVSG	high proliferation-inducing activity	
AIMP1-(6-192): recombinant deletion mutant of AIMP1, expressed as GST-tag fusion protein (protein, listed as Homo sapiens, GST tag fusion; PEPTIDE (1)..(187) AIMP1-(6-192), recombinant deletion mutant of AIMP1, expressed as GST-tag fusion protein) AVLKRLEQKGAEADQIIEYLKQQVSLLKEKAILQATLREEKKLRVENAKLKKEIEELKQELIQAEIQNGVKQIAFPSGTPLHANSMVSENVIQSTAVTTVSSGTKEQIKGGTGDEKKAKEKIEKKGEKKEKKQQSIAGSADSKPIDVSRLDLRIGCIITARKHPDADSLYVEEVDVGEIAPRTVVSG	high proliferation-inducing activity	
